Our source for the self-cleavage values is the RNAGym collection of RNA variant scans (doi:10.7554/elife.80360).

The labels stand for the following.
B1: Twister Ribozyme (parent)
chain: AACACUGCCAAUGCCGGUCCCAAGCCCGGAUAAAAGUGGAGGGGGCGG

This data set covers variants of B1. Put plainly: self-cleavage, relative activity (ratio to wild type); higher = more cleavage; co-transcriptional.
In the case of AACACUGCCAAUGCCGGUCCCAAGCCCGGAUAAAAGUGGAGAGGGCUG [G42A G47U], the self-cleavage was 0.325.
Turning to AACACUGCCCAUUCCGGUCCCAAGCCCGGAUAAAAGUGGAGGGGGCGG [A10C G13U], the self-cleavage turned out to be 0.677.
The same measure for AACACUGCCAAUGCCGGUCCCAAGCCCGGAUAACAGUGGAUGGGGCGG [A34C G41U]: 0.112.
The same measure for UACACUGCCAUUGCCGGUCCCAAGCCCGGAUAAAAGUGGAGGGGGCGG [A1U A11U]: 0.0684; for AAUACUGUCAAUGCCGGUCCCAAGCCCGGAUAAAAGUGGAGGGGGCGG [C3U C8U]: 0.216; for AACACUGCCAAUGCCGGUCCCAAGCCGGGAUAACAGUGGAGGGGGCGG [C27G A34C]: 0.0686.
With AACAAUGCCAAUGCCGGUCCCAAGCCCGGAUACAAGUGGAGGGGGCGG [C5A A33C] the figure was 0.439; with AACACUGCCAAUGCCGGUCCCAAGCCCGGAUAGAAGUGGAGAGGGCGG [A33G G42A], 0.215; with AACACUGCCAAUGCCGGUCCCAAGCCCGGUUAAAGGUGGAGGGGGCGG [A30U A35G], 0.772.
On to AACACUGUCAAUGCAGGUCCCAAGCCCGGAUAAAAGUGGAGGGGGCGG [C8U C15A], for which the self-cleavage is 0.318.
For the variant ACCACUGCCAAUGCCGGUCCCAAGCCCGGAUAAAAGUGGGGGGGGCGG [A2C A40G], the self-cleavage is 0.059.
With AACACUGCCAAUGCCGGUCCCAAGCCCGGGUAAAAGUGGCGGGGGCGG [A30G A40C], the self-cleavage was found to be 0.215.
With AACACUGCCAACGCCGGUCCCAAGCCCGGAUAAAAGUGAAGGGGGCGG [U12C G39A] the figure was 0.609; with AACACUGCCAAUGCCGGUCCCAAGCGCGGCUAAAAGUGGAGGGGGCGG [C26G A30C], 0.0641.
In the case of AACACUGCCAAUGCCGGUCCCAAGUCCGGAUCAAAGUGGAGGGGGCGG [C25U A32C], the self-cleavage stood at 0.903.
In the case of AACACUCCCAAUGCCGGUCCCAAGCCCGGAUAAAUGUGGAGGGGGCGG [G7C A35U], the self-cleavage turned out to be 0.0701.
With AACACUGCCAAUGCCGGUCCCAAGCCCGGAUCAAAGUCGAGGGGGCGG [A32C G38C] the figure was 0.89; with AUCACUGCCAAUGCCGGUCCCAAGCCCGGAUAAAAGUGGAGGUGGCGG [A2U G43U], 0.139.
With AACACUGCCAAUGCCGGUCCCAAGCCCGGGUAAAAGUGGAGGGGUCGG [A30G G45U] the figure was 0.757.
The same measure for AACACUACCAAUGCCGGUCUCAAGCCCGGAUAAAAGUGGAGGGGGCGG [G7A C20U]: 0.116; for AACACUGCCGAUGCCGGUCCCAAGCCCGGAUAAAAGUGGAGGGGGGGG [A10G C46G]: 0.971.
AACACUGCCAAUGCCGGUCCUAAGCCCUGAUAAAAGUGGAGGGGGCGG [C21U G28U]: the self-cleavage is 0.102.
The same measure for AACACUGCCAAUGCCGGUCCCAAGCCCGGAUAAAAGUAUAGGGGGCGG [G38A G39U]: 0.142.
With AACACUGCCAAUGCCGGUCCCAGGCCCUGAUAAAAGUGGAGGGGGCGG [A23G G28U] the figure was 0.184.
The same measure for AACAGUGCCAAUGCCGGUCCCAAGCCCGGAUAAAAGUGGAGGCGGCGG [C5G G43C]: 0.122; for AACAGUGCCAAUGCCGGUCCCAAGCCCGGAUAAAAGUGGAGGAGGCGG [C5G G43A]: 0.153; for AACAGUGCCAAUGCCGGUCCCAAGCCCGGAUAAGAGUGGAGGGGGCGG [C5G A34G]: 0.384.
Take AACACUGCCAAUGCCGGUCGCAAGCCCGGACAAAAGUGGAGGGGGCGG [C20G U31C]: the self-cleavage is 0.0873.
With AACACUGCCAAGGCCGGUCCCAAGCCCAGAUAAAAGUGGAGGGGGCGG [U12G G28A] the figure was 0.799; with AACGCUGCCAAUGCCGGUCCCAAGCCCGGAUAAAAGAGGAGGGGGCGG [A4G U37A], 0.796.
With AACACUGCCAAUGCCGGUGCCAAGCCCGGAUAAAAGUCGAGGGGGCGG [C19G G38C], the self-cleavage came to 0.152.
Consider AACACUGCCAGUGCCCGUCCCAAGCCCGGAUAAAAGUGGAGGGGGCGG [A11G G16C], for which the self-cleavage turned out to be 0.406.
With AACACUGCCAAUACCGGUCCCAAGGCCGGAUAAAAGUGGAGGGGGCGG [G13A C25G] the figure was 0.0804; with AACACUGCCAAUGCCGGUCCCAAGCCCGGAUCAAAGUGGAGGGGGCGC [A32C G48C], 1.12; with AACACAGCCAAUGCCGGUCCCAAGCCCGGAUAAAAGUAGAGGGGGCGG [U6A G38A], 0.738.
The same measure for AACACUGCAAAUGCCGGUCCCAAGCCCGGAUAUAAGUGGAGGGGGCGG [C9A A33U]: 0.638.
With AAAACUGCAAAUGCCGGUCCCAAGCCCGGAUAAAAGUGGAGGGGGCGG [C3A C9A] the figure was 0.155; with AACACUGCCAAUGCCCGUCCCAAGCCCGGAUAAAAGUGGAGGGGGCGG [G16C], 0.663; with AACACUGCCAAUGCCGGUCCCAAGACCGGAUAAAAGUGGAGGGGACGG [C25A G45A], 0.0857.
For the variant AACACUGCCAAUGCCGGUCCCACGCCCGGAUAAGAGUGGAGGGGGCGG [A23C A34G], the self-cleavage came out at 0.135.
With AACACUGCCAAUGCCGGUCCCAAGCCCGGAUAAAUGUGGAGGGGGCGA [A35U G48A] the figure was 1.02; with AACACUGACAAUGCCGGUCCCAAGCCCGGAUAAAGGUGGAGGGGGCGG [C8A A35G], 0.226; with AACACUGGCAAUGCCGGUCCCAAGCCCGGAUAAAAGAGGAGGGGGCGG [C8G U37A], 0.115.
With AACACUGCCAAUGCCGGUCUCAAGCCCGGAUAAAAGGGGAGGGGGCGG [C20U U37G] the figure was 0.702; with AACACUGCCAAAGCCUGUCCCAAGCCCGGAUAAAAGUGGAGGGGGCGG [U12A G16U], 1.09.
The same measure for AACACUGCCAAAGCCAGUCCCAAGCCCGGAUAAAAGUGGAGGGGGCGG [U12A G16A]: 1.03; for UACACUGCCAAUGCCGGUCCCAAGCCCGGAUAAAAGUGGCGGGGGCGG [A1U A40C]: 0.0671; for AACACUGCCAAUGCCGGUCCCAAGCCCGGAUAAAAGUGGAGCGGGCGG [G42C]: 0.622.
Turning to AAGACUGCCAAUGCCGGUCCCAAGCACGGAUAAAAGUGGAGGGGGCGG [C3G C26A], the self-cleavage is 0.121.
With AACACUGCCAAUGCCGGUCCCAAGCCCGGAUAAAAGUGGGGGGGGCAG [A40G G47A] the figure was 0.102.
As to ACCACUGCCAAUGCCGGUCCCAAGCCUGGAUAAAAGUGGAGGGGGCGG [A2C C27U], the self-cleavage was found to be 0.0597.
Take AACACUGCCAAUGCCGGUCCAAAGCCCGGAUAAAAGUGGAGGGGCCGG [C21A G45C]: the self-cleavage turned out to be 0.109.
For AACACUGCCAAUGCCGGUGCCAAGCCCGGGUAAAAGUGGAGGGGGCGG [C19G A30G], the self-cleavage was 0.468.
With AACACUGCCAAUGCAGGUCGCAAGCCCGGAUAAAAGUGGAGGGGGCGG [C15A C20G] the figure was 0.0632.
